Data reported in paper PMC11579453 (Nature Communications, 2024).
Where two headings read alike, the source gives them in different places. Each block holds one molecule with its values, some of them ahead of it.

Experiments:
Aβ42 amyloid fibrils = Aβ42 amyloid fibrils (UniProt P05067); test: microfluidic diffusional sizing; Alexa647-labelled BRICHOS held constant (three concentrations a curve set), Aβ42 fibrils varied between 0.01 and 24 µM (monomer equivalents), incubated 48 h; global fit of Kd and stoichiometry
[1] = biological target: WT α-Synuclein amyloid fibrils (human) (UniProt P37840); test: microfluidic diffusional sizing; Alexa647-labelled BRICHOS held constant (three concentrations a curve set), α-Syn fibrils varied between 0.01 and 24 µM (monomer equivalents), equilibrium within 2 hours; global fit of Kd and stoichiometry
[2] = biological target: WT α-Synuclein amyloid fibrils (human) (UniProt P37840); test: as above; remark: listed apart in the source
[3] = biological target: WT α-Synuclein amyloid fibrils (human) (UniProt P37840); test: single-molecule TIRF microscopy (single particle tracking); α-Syn fibrils immobilised on a glass coverslip, blocked with BSA; Atto647-labelled Var II added at 1-100 nM in PBS
[4] = biological target: WT α-Synuclein amyloid fibrils (human) (UniProt P37840); test: NMR signal intensity ([15N,1H]-HMQC), competition; 100 µM 15N-labelled α-Syn monomer with 540 µM unlabelled α-Syn fibrils, 2 h at 4 °C, then unlabelled Var II added at 100, 300 or 500 µM, followed for ~120 min; 25 mM phosphate, 25 mM NaCl, pH ~6.8
[5] = biological target: the molecule itself; test: multi-angle light scattering; proSP-C BRICHOS alone in solution; molecular mass read out; conditions not stated
[6] = biological target: T1, proSP-C BRICHOS (K114I, R139Q) (UniProt P11686 90-197, K114I | R139Q, Alexa647 label in the microfluidic diffusional sizing (site not stated); Atto647 succinimidyl ester (amine labelling) in the single-molecule microscopy; 15N labelled in the NMR binding experiments …); test: NMR titration; 15N-labelled Var II, [15N,1H]-TROSY, peptide added at 100 µM to 2 mM; 25 mM phosphate, 25 mM NaCl, pH ~6.8, 2.5% DMSO, 303 K; details: both partners purified
T1 construct: BRICHOS domain of proSP-C, residues 90-197, with two salt-bridge mutations of the trimer interface; Monomer by light scattering, diffusional sizing and NMR structure; also called variant II; Var II; source: E. coli BL21(DE3*) pLysS, purified (Ni-NTA, TEV digestion, Ni chromatography, SEC); not shown: His tag, N-terminal, cleaved; NT* solubility tag, N-terminal, cleaved
T1 sequence (looked up): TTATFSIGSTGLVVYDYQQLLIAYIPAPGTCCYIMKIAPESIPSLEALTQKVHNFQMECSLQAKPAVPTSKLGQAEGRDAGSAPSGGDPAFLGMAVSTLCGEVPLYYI

[7] = scale: monomer units in the fibril per BRICHOS molecule

Molecule: WT proSP-C BRICHOS domain (residues 90-197) (from UniProt P11686 90-197) (domain or fragment)
Kd (Aβ42 amyloid fibrils): 192 nM
stoichiometry N (Aβ42 amyloid fibrils; scale: Aβ42 monomer units on the fibril per BRICHOS molecule): 8
Kd [1]: 696 nM
stoichiometry N ([1]; scale: monomer units of α-Syn per BRICHOS molecule): 38

B1: WT proSP-C BRICHOS domain (residues 90-197) (domain or fragment, UniProt P11686 90-197, looked up)
chain: TTATFSIGSTGLVVYDYQQLLIAYKPAPGTCCYIMKIAPESIPSLEALTRKVHNFQMECSLQAKPAVPTSKLGQAEGRDAGSAPSGGDPAFLGMAVSTLCGEVPLYYI
modifications: Alexa647 label in the microfluidic diffusional sizing (site not stated); 15N,13C labelled for NMR
notes: BRICHOS domain of the lung surfactant protein C precursor (proSP-C), residues 90-197; Homotrimer by light scattering, diffusional sizing and NMR structure; Disulfide bridges 120-148 and 121-189 were restrained in the structure calculation; BMRB entries 34811 and 34813 are printed without saying which is the trimer; also called WT BRICHOS; trimeric proSP-C BRICHOS; not shown: His tag, N-terminal, …
stoichiometry N [5]: 3

B2: client peptide B (peptide)
peptide: VLEMGSGSGSKKVVVVVKK
notes: model client peptide, designed to be able to form a beta hairpin; said to represent part of the transmembrane helical segment of native proSP-C; Dissolved in DMSO at 20 mM stock; also called substrate peptide; source: synthetic peptide; bought: GL Biochem, Shanghai
Kd [6]: ~800000 nM

The remaining lines, values ahead:

Kd [1]: 1260 nM
stoichiometry N [1, 7]: 18
Kd [2]: 1.26 nM
Molecule: proSP-C BRICHOS (E135R, R139E) (from UniProt P11686 90-197) (domain or fragment)

residence time on the fibrils [3]: 350 to 400 ms
residence time on the fibrils (three exemplary molecules) [3]: 100 s
Kd (Aβ42 amyloid fibrils): 21.4 nM
stoichiometry N (Aβ42 amyloid fibrils; [7]): 6
Kd [1]: 450 nM
stoichiometry N ([1]; scale: monomer units in the fibrils per BRICHOS molecule): 7
Kd [2]: 450000 nM
percent of fibril-bound monomeric α-Syn released (100 µM Var II) [4]: 25%
percent of fibril-bound monomeric α-Syn released (300 µM Var II) [4]: 50%
percent of fibril-bound monomeric α-Syn released (500 µM Var II) [4]: 65%
Molecule: proSP-C BRICHOS (K114I, R139Q) (from UniProt P11686 90-197) (domain or fragment)
